Measured values published in patent US20100162418A1 (Kyowa Kirin, published 2010).

Columns and labels:
[1] = target: T1, MSPS, purified recombinant human Protein S obtained from FUT8 knockout CHO/DG44 cells (human, UniProt P07225 42-676, gamma-carboxylated glutamic acid (Gla) in the Gla domain; complex type N-glycoside-linked sugar chains without fucose (fucose not detected)); assay: SPR (Biacore), S100A8/A9 immobilised on C1 chip, MSPS as analyte
T1 construct: It differs from KCPS only in glycosylation (no core fucose); also called fucose-free recombinant Protein S
T1 sequence: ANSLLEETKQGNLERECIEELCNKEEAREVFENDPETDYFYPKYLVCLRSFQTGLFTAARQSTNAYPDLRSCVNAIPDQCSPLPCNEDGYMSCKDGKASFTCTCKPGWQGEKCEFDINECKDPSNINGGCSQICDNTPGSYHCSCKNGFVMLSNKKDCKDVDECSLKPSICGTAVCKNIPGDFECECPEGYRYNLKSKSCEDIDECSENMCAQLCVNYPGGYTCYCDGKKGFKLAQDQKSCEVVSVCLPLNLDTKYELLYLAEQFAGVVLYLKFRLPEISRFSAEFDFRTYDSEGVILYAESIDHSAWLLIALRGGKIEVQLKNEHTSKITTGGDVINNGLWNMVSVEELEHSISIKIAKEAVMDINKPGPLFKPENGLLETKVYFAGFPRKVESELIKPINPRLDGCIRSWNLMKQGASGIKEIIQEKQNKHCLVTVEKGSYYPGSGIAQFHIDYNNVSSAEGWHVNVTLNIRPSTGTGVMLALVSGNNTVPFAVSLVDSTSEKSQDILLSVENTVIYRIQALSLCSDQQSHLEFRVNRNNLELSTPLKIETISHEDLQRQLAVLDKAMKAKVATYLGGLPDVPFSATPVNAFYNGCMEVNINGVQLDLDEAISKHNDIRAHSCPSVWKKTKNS
Protocol: Using an amine coupling kit (manufactured by Biacore), recombinant human HMGB-1 (manufactured by R&D Systems), recombinant human Mac-1 heterodimer (αmβ2 integrin, CD11b/CD18; manufactured by R&D Systems), and recombinant human S100A8/A9 (manufactured by R&D Systems) were respectively immobilized at 200 RU, 1200 RU, and 400 RU on flow cells of a Series S C1 sensor chip (manufactured by Biacore). The measurement was carried out in the same manner as in Example 5, except that the recombinant human RAGE-Fc fusion protein (manufactured by R&D Systems) diluted to given concentrations of 50000, 5000 or 500 ng/mL was used as an analyte.
Next, using the same sensor chip, the same binding experiment was carried out using a recombinant human RAGE-Fc fusion protein (5000 ng/mL) mixed with MSPS (final concentration of 50000 and 5000 μg/mL), as an analyte.

[2] = target: T2, recombinant human RAGE-Fc fusion protein (manufactured by R&D Systems) (human, UniProt Q15109 24-344); assay: SPR (Biacore), S100A8/A9 immobilised on C1 chip, RAGE-Fc (50000, 5000, 500 ng/mL) as analyte
T2 construct: Bought fusion protein; also called recombinant soluble RAGE-human IgG1 Fc chimeric protein; not shown: Fc of human IgG1
Description: (§1) Using an amine coupling kit (manufactured by Biacore), human plasma-derived Protein S (manufactured by Calbiochem), human plasma-derived complement C4 binding protein (C4BP; manufactured by BioMed), and human plasma-derived complement C1 inhibitor Berinert P (manufactured by CSL Behring) were respectively immobilized on flow cells of a CM5 sensor chip (manufactured by Biacore). An immobilized amount of the ligand protein on the respective flow cells was set to the range of 2400 to 3600 resonance units (hereinafter referred to as “RU”). The complement C4 binding protein and the complement C1 inhibitor are known as plasma glycoproteins having the anti-inflammatory effect. Then, a recombinant human RAGE-Fc fusion protein (manufactured by R&D Systems) diluted to given concentrations (50000, 25000, 12500, 6250, 3125, and 1562 ng/mL) using HBS-EP+buffer (manufactured by Biacore), as an analyte, was allowed to run and bind to the ligand-immobilized flow cells at a temperature of 25° C., a flow rate of 5 μL/min, association time of 140 seconds, and dissociation time of 240 seconds. The chip was regenerated by a flow of an aqueous glycine solution (pH 1.5) (manufactured by Biacore) for 60 seconds. […]

[3] = target: T1, MSPS, purified recombinant human …; assay: SPR (Biacore), HMGB-1 immobilised on C1 chip, MSPS as analyte
[4] = target: T2, recombinant human RAGE-Fc fusion …; assay: SPR (Biacore), HMGB-1 immobilised on C1 chip, RAGE-Fc (50000, 5000, 500 ng/mL) as analyte
Description: as §1

[5] = target: T3, human plasma-derived Protein S (manufactured by Calbiochem) (human, UniProt P07225 42-676, gamma-carboxylated glutamic acid (Gla) in the N-terminal Gla domain; complex type N-glycoside-linked sugar chains (Asn458, Asn468, Asn489), partly with core alpha1,6-fucose (Fuc 0.26 per Man 3.00)); assay: SPR (Biacore), plasma Protein S immobilised on CM5, E-selectin Fc as analyte
T3 construct: Bought protein purified from human plasma; also called native Protein S; Human plasma Protein S
T3 sequence: T1 sequence

T2 sequence (Q15109 24-344 limits assumed): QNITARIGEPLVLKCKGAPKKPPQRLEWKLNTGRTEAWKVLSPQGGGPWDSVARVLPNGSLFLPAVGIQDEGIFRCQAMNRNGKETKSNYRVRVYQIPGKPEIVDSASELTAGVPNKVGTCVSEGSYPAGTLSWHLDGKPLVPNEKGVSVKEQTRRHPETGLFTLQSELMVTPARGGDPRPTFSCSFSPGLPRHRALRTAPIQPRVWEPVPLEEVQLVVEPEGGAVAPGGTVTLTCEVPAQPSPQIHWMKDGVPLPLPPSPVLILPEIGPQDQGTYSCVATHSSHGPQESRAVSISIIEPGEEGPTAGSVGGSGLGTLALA

B1: recombinant human S100A8/A9 (manufactured by R&D Systems) (ligand)
chain 1: MLTELEKALNSIIDVYHKYSLIKGNFHAVYRDDLKKLLETECPQYIRKKGADVWFKELDINTDGAVNFQEFLILVIKMGVAAHKKSHEESHKE
chain 2: MTCKMSQLERNIETIINTFHQYSVKLGHPDTLNQGEFKELVRKDLQNFLKKENKNEKVIEHIMEDLDTNADKQLSFEEFIMLMARLTWASHEKMHEGDEGPGHHHKPGLGEGTP
notes: Bought
B1: no binding [1]; binds [2].

B2: recombinant human HMGB-1 (manufactured by R&D Systems) (ligand, UniProt P09429 1-215, looked up)
chain: MGKGDPKKPRGKMSSYAFFVQTCREEHKKKHPDASVNFSEFSKKCSERWKTMSAKEKGKFEDMAKADKARYEREMKTYIPPKGETKKKFKDPNAPKRPPSAFFLFCSEYRPKIKGEHPGLSIGDVAKKLGEMWNNTAADDKQPYEKKAAKLKEKYEKDIAAYRAKGKPDAAKKGVVKAEKSKKKKEEEEDEEDEEDEEEEEDEEDEDEEEDDDDE
B2: no binding [3]; binds [4].

B3: human E-selectin Fc fusion protein (manufactured by R&D systems) (Fc fusion, UniProt P16581 22-556, looked up)
chain: WSYNTSTEAMTYDEASAYCQQRYTHLVAIQNKEEIEYLNSILSYSPSYYWIGIRKVNNVWVWVGTQKPLTEEAKNWAPGEPNNRQKDEDCVEIYIKREKDVGMWNDERCSKKKLALCYTAACTNTSCSGHGECVETINNYTCKCDPGFSGLKCEQIVNCTALESPEHGSLVCSHPLGNFSYNSSCSISCDRGYLPSSMETMQCMSSGEWSAPIPACNVVECDAVTNPANGFVECFQNPGSFPWNTTCTFDCEEGFELMGAQSLQCTSSGNWDNEKPTCKAVTCRAVRQPQNGSVRCSHSPAGEFTFKSSCNFTCEEGFMLQGPAQVECTTQGQWTQQIPVCEAFQCTALSNPERGYMNCLPSASGSFRYGSSCEFSCEQGFVLKGSKRLQCGPTGEWDNEKPTCEAVRCDAVHQPPKGLVRCAHSPIGEFTYKSSCAFSCEEGFELHGSTQLECTSQGQWTEEVPSCQVVKCSSLAVPGKINMSCSGEPVFGTVCKFACPEGWTLNGSAARTCGATGHWSGLLPTCEAPTESNIP
notes: Fc-bearing control protein; bought; not shown: Fc, described as similar to the Fc of human IgG1 contained in the RAGE-Fc fusion protein
B3: no binding [5].
